B1: TMEM175 (parent)
chain: QTSAFARQPRDELERVRVSCTIIF
B2: RAD51 (parent)
chain: APKKELINIKGISEAKADKILAEA

Variants of: B1
Test: protein stability index of a GFP-peptide fusion (GPS, HEK-293T) (PSI 1-6); higher = more stable
Conditions: c terminus: a fixed tail appended
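Note: lentivirally expressed fusions sorted by FACS into six bins by GFP to DsRed ratio, PSI derived from sequencing read proportions per bin multiplied by bin number.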

| Variant | protein stability index |
| --- | --- |
| QTSAFARQPRDELERVRVSCTIIM [F24M] | 2.35 |
| QTSAFARQPRDELERVRVSCTIIN [F24N] | 2.48 |
| QTSAFARQPRDELERVRVSCTIIP [F24P] | 2.78 |
| QTSAFARQPRDELERVRVSCTIIQ [F24Q] | 2.56 |
| QTSAFARQPRDELERVRVSCTIIR [F24R] | 2.37 |
| QTSAFARQPRDELERVRVSCTIIS [F24S] | 2.46 |
| QTSAFARQPRDELERVRVSCTIIT [F24T] | 1.64 |
| QTSAFARQPRDELERVRVSCTIIW [F24W] | 1.21 |
| QTSAFARQPRDELERVRVSCTIIY [F24Y] | 2.08 |

Variants of: B2
Test: as above
Conditions: c terminus: a fixed tail appended

| Variant | protein stability index |
| --- | --- |
| CPKKELINIKGISEAKADKILAEA [A1C] | 4.73 |
| DPKKELINIKGISEAKADKILAEA [A1D] | 4.31 |
| EPKKELINIKGISEAKADKILAEA [A1E] | 5.23 |
| FPKKELINIKGISEAKADKILAEA [A1F] | 3.87 |
| GPKKELINIKGISEAKADKILAEA [A1G] | 4.71 |
| HPKKELINIKGISEAKADKILAEA [A1H] | 4.37 |
| IPKKELINIKGISEAKADKILAEA [A1I] | 4.39 |
| KPKKELINIKGISEAKADKILAEA [A1K] | 4.84 |
| LPKKELINIKGISEAKADKILAEA [A1L] | 4.72 |
| MPKKELINIKGISEAKADKILAEA [A1M] | 4.06 |
| NPKKELINIKGISEAKADKILAEA [A1N] | 4.71 |
| PPKKELINIKGISEAKADKILAEA [A1P] | 4.67 |
| QPKKELINIKGISEAKADKILAEA [A1Q] | 4.55 |
| RPKKELINIKGISEAKADKILAEA [A1R] | 4.63 |
| SPKKELINIKGISEAKADKILAEA [A1S] | 4.52 |
| TPKKELINIKGISEAKADKILAEA [A1T] | 4.41 |
| VPKKELINIKGISEAKADKILAEA [A1V] | 4.08 |
| WPKKELINIKGISEAKADKILAEA [A1W] | 3.75 |
| YPKKELINIKGISEAKADKILAEA [A1Y] | 3.83 |
| AAKKELINIKGISEAKADKILAEA [P2A] | 4.93 |
| ACKKELINIKGISEAKADKILAEA [P2C] | 4.5 |
| ADKKELINIKGISEAKADKILAEA [P2D] | 5.18 |

| Variant | protein stability index |
| --- | --- |
| AEKKELINIKGISEAKADKILAEA [P2E] | 4.7 |
| AFKKELINIKGISEAKADKILAEA [P2F] | 3.62 |
| AGKKELINIKGISEAKADKILAEA [P2G] | 4.68 |
| AHKKELINIKGISEAKADKILAEA [P2H] | 4.85 |
| AIKKELINIKGISEAKADKILAEA [P2I] | 4.01 |
| AKKKELINIKGISEAKADKILAEA [P2K] | 4.34 |
| ALKKELINIKGISEAKADKILAEA [P2L] | 3.97 |
| AMKKELINIKGISEAKADKILAEA [P2M] | 4.53 |
| ANKKELINIKGISEAKADKILAEA [P2N] | 4.39 |
| AQKKELINIKGISEAKADKILAEA [P2Q] | 4.88 |
| ARKKELINIKGISEAKADKILAEA [P2R] | 4.02 |
| ASKKELINIKGISEAKADKILAEA [P2S] | 4.36 |
| ATKKELINIKGISEAKADKILAEA [P2T] | 4.6 |
| AVKKELINIKGISEAKADKILAEA [P2V] | 4.44 |
| AWKKELINIKGISEAKADKILAEA [P2W] | 3.79 |
| AYKKELINIKGISEAKADKILAEA [P2Y] | 4.18 |
| APAKELINIKGISEAKADKILAEA [K3A] | 4.92 |
| APCKELINIKGISEAKADKILAEA [K3C] | 4.28 |
| APDKELINIKGISEAKADKILAEA [K3D] | 4.71 |
| APEKELINIKGISEAKADKILAEA [K3E] | 4.94 |
| APFKELINIKGISEAKADKILAEA [K3F] | 3.48 |
| APGKELINIKGISEAKADKILAEA [K3G] | 4.65 |

| Variant | protein stability index |
| --- | --- |
| APHKELINIKGISEAKADKILAEA [K3H] | 4.87 |
| APIKELINIKGISEAKADKILAEA [K3I] | 4.77 |
| APLKELINIKGISEAKADKILAEA [K3L] | 3.3 |
| APMKELINIKGISEAKADKILAEA [K3M] | 3.95 |
| APNKELINIKGISEAKADKILAEA [K3N] | 4.58 |
| APPKELINIKGISEAKADKILAEA [K3P] | 4.83 |
| APQKELINIKGISEAKADKILAEA [K3Q] | 4.81 |
| APRKELINIKGISEAKADKILAEA [K3R] | 4.58 |
| APSKELINIKGISEAKADKILAEA [K3S] | 4.55 |
| APTKELINIKGISEAKADKILAEA [K3T] | 4.97 |
| APVKELINIKGISEAKADKILAEA [K3V] | 5.06 |
| APWKELINIKGISEAKADKILAEA [K3W] | 3.81 |
| APYKELINIKGISEAKADKILAEA [K3Y] | 3.85 |
| APKAELINIKGISEAKADKILAEA [K4A] | 4.44 |
| APKCELINIKGISEAKADKILAEA [K4C] | 4.68 |
| APKDELINIKGISEAKADKILAEA [K4D] | 5.31 |
| APKEELINIKGISEAKADKILAEA [K4E] | 5.22 |
| APKFELINIKGISEAKADKILAEA [K4F] | 4.5 |
| APKGELINIKGISEAKADKILAEA [K4G] | 4.57 |
| APKHELINIKGISEAKADKILAEA [K4H] | 4.17 |
| APKIELINIKGISEAKADKILAEA [K4I] | 4.25 |
| APKLELINIKGISEAKADKILAEA [K4L] | 4.19 |

| Variant | protein stability index |
| --- | --- |
| APKMELINIKGISEAKADKILAEA [K4M] | 4.13 |
| APKNELINIKGISEAKADKILAEA [K4N] | 4.95 |
| APKPELINIKGISEAKADKILAEA [K4P] | 5.05 |
| APKQELINIKGISEAKADKILAEA [K4Q] | 4.6 |
| APKRELINIKGISEAKADKILAEA [K4R] | 4.39 |
| APKSELINIKGISEAKADKILAEA [K4S] | 4.96 |
| APKTELINIKGISEAKADKILAEA [K4T] | 4.69 |
| APKVELINIKGISEAKADKILAEA [K4V] | 4.82 |
| APKWELINIKGISEAKADKILAEA [K4W] | 3.98 |
| APKYELINIKGISEAKADKILAEA [K4Y] | 4.52 |
| APKKALINIKGISEAKADKILAEA [E5A] | 4.12 |
| APKKCLINIKGISEAKADKILAEA [E5C] | 3.56 |
| APKKDLINIKGISEAKADKILAEA [E5D] | 4.6 |
| APKKFLINIKGISEAKADKILAEA [E5F] | 3.04 |
| APKKGLINIKGISEAKADKILAEA [E5G] | 4.63 |
| APKKHLINIKGISEAKADKILAEA [E5H] | 4.48 |
| APKKILINIKGISEAKADKILAEA [E5I] | 3.4 |
| APKKKLINIKGISEAKADKILAEA [E5K] | 4 |
| APKKLLINIKGISEAKADKILAEA [E5L] | 3.65 |
